Laboratory results: patent US8017576B2, “Methods and compositions to treat mucositis” (The University of Chicago, priority 2005, dated 2011)

B1: rhAMP-18: recombinant human AMP-18 prepared in E. coli; Antrum Mucosal Protein-18 (gastrokine-1) (protein, UniProt Q9NS71 21-185, looked up)
Gastrokine-1: NYNINVNDDNNNAGSGQQSVSVNNEHNVANVDNNNGWDSWNSIWDYGNGFAATRLFQKKTCIVHKMNKEVMPSIQSLDALVKEKKLQGKGPGGPPPKGLMYSVNPNKVDDLSKFGKNIANMCRGIPTYMAEEMQEASLFFYSGTCYTTSVLWIVDISFCGDTVEN
B2: KGF-1: keratinocyte growth factor, known epithelial cell mitogen (protein, UniProt P21781 32-194, looked up)
Fibroblast growth factor 7: CNDMTPEQMATNVNCSSPERHTRSYDYMEGGDIRVRRLFCRTQWYLRIDKRGKVKGTQEMKNNYNIMEIRTVAVGIVAIKGVESEFYLAMNKEGKLYAKKECNEDCNFKELILENHYNTYASAKWTHNGGEMFVALNQKGIPVRGKKTKKEQKTAHFLPMAIT

Assays:
[1] = test system: stomach and intestinal epithelial cells; test: Mitogenic and physiological effects on stomach and intestinal epithelial cells; format: cell-based
Text: The synthesis of AMP-18 is confined to lumenal mucosal lining epithelial cells of the gastric antrum of humans and other mammals. Inside cells the protein is co-localized with mucins in secretion granules, and appears to be secreted into the mucus overlying the apical plasma membrane. […] These include mitogenesis, restitution, maturation of barrier function, and cell protection after oxidant, non-steroidal anti-inflammatory (NSAID), and DSS-mediated injury. Certain of these physiological effects can occur at concentrations that are relatively low for rhAMP-18 (<50 μM) compared to the concentrations of other gastric peptide mediators such as trefoil peptides or the α-defensin, cryptdin 3 (>100 μM). […] AMP-18 likely plays a role in physiological and pathological processes such as wound healing in the gastric mucosal epithelium in vivo as may occur in gastritis secondary to NSAID drugs, other pharmaceutical agents and alcohol, ulcer disease, and the consequences of H. pylori infection and inflammation.

[2] = test system: human colonic Caco2 (C2) cell monolayers; test: Tight junction recovery after low-calcium disruption, ZO-1 confocal microscopy; format: cell-based; conditions: low-calcium medium (3 μM) 1 hour, assessed 2 hours after addition; AMP peptide 8 μg/ml, KGF-1 100 ng/ml, EGF 100 ng/ml
Experimental: The AMP77-97 peptide prevented decreases in TJ proteins and epithelial integrity seen after treatment of human colonic Caco2 (C2) cell monolayers with the oxidant monochloramine, which disrupts intercellular junctions (FIG. 2; C,D). These cells were exposed to low-calcium medium (3 μM) for 1 hr to disrupt TJs, and then allowed to recover in medium containing AMP77-97 peptide, epidermal growth factor (EGF) or keratinocyte growth factor (KGF-1) which are known epithelial cell mitogens that might facilitate recovery of disrupted TJs. […] At the molecular level, AMP77-97 peptide facilitates the formation of TJs by enhancing translocation of several proteins (protein kinase C-zeta, Par6, Cdc42, ECT2 and Par3) from the cytosol into TJ domains.
Localization of the tight junction protein ZO-1 was monitored by indirect immunofluorescence laser scanning confocal microscopy in confluent monolayers of C2 cells. […] To disrupt tight junctions, cells were switched to low-calcium medium (3 μM) for 1 hour. Then a growth factor at a known mitogenic concentration was added to the medium, and 2 hours later its effect on tight junction formation was assessed by confocal microscopy. Vehicle, AMP peptide (8 μg/ml), KGF-1 (100 ng/ml), and EGF (100 ng/ml) were compared.

Row | Molecule | concentration for mitogenic effect relative to growth-promoting synthetic peptides ([1]; recombinant protein prepared in E. coli) | concentrations at which physiological effects occur ([1]; rhAMP-18) | formation of new tight junctions / localization of ZO-1 [2]
1 | B1 | an order of magnitude lower | < 50 μM | –
2 | B2 | – | – | persistent separation of cells with TJ disruption and apparent loss of ZO-1
